This note sets out measurements from paper doi:10.1101/2022.01.30.478305 (bioRxiv, 2022).

For this test, the target named is SARS-CoV-2 RBD-his (SARS-CoV-2, UniProt P0DTC2). Nature of the test: ELISA. (In general: In an ELISA, binding on a coated surface is turned into a signal by an enzyme label.)

B1: 16L9 (antibody, V domains shown)
VH: EVQLVESGGGLIQPGGSLRLSCAASGFTVSSNYMSWVRQAPGKGLEWVSVIYSGGSTYYADSVKGRFTISRDNSENTLYLQMNSLRAEDTAVYYCARGEIQPYYYYGMDVWGQGTTVTVSS
VL: QSVLTQPPSASGSPGQSVTISCTGTSSDFGGYNSVSWYQQHPGKAPKLMIYEVSKRPSGVPDRFSGSKSGNTASLTVSGLQAEDEADYYCSSYAGSNNFDVFGTGTKVTVL
For B1, the binding result is on record as “binds”.
